Laboratory results published in paper PMC4338043 (PLoS ONE, 2015).

B1: Neisseria meningitidis inosine-5'-monophosphate dehydrogenase (enzyme, Neisseria meningitidis strain FAM18, UniProt Q9JZB5 1-487, looked up)
chain: MRIVEKAYTFDDVLLVPAHSTVLPRDVKLQTKLTREITLNLPLLSAAMDTVTEARLAISMAQEGGIGIIHKNMPPEMQARAVSKVKRHESGVVKDPVTVAPTTLIREVLEMRAQRKRKMSGLPVVENGKVVGIVTNRDLRFENRVDLPVSAIMTPRERLVTVPEGTSIDEARELMHTHKVERVLVLNEKDELKGLITVKDILKTTEFPNANKDSEGRLRVGAAVGTGGDTEERVKALVEAGVDVIVVDTAHGHSQGVIDRVRWVKETYPHIQVIGGNIATAKAALDLVAAGADAVKVGIGPGSICTTRIVAGVGVPQLTAIHNVAEALKGTGVPLIADGGIRFSGDIAKALAAGAYSVMLGGMFAGTEEAPGEIELYQGRSYKSYRGMGSLGAMSQGSADRYFQDKTDSTDKYVPEGIEGRVPYKGPIVNIIHQLTGGLRSSMGYLGCANIAEMHEKAEFVEITSAGMSESHVHDVQITKEAPNYHR
notes: also called IMPDHnm; class I IMPDH
B2: Staphylococcus aureus inosine-5'-monophosphate dehydrogenase (enzyme, Staphylococcus aureus strain N315, UniProt P99106 1-488, looked up)
chain: MWESKFAKESLTFDDVLLIPAQSDILPKDVDLSVQLSDKVKLNIPVISAGMDTVTESKMAIAMARQGGLGVIHKNMGVEEQADEVQKVKRSENGVISNPFFLTPEESVYEAEALMGKYRISGVPIVDNKEDRNLVGILTNRDLRFIEDFSIKIVDVMTQENLITAPVNTTLEEAEKILQKHKIEKLPLVKDGRLEGLITIKDIEKVIEFPNAAKDEHGRLLVAAAIGISKDTDIRAQKLVEAGVDVLVIDTAHGHSKGVIDQVKHIKKTYPEITLVAGNVATAEATKDLFEAGADIVKVGIGPGSICTTRVVAGVGVPQITAIYDCATEARKHGKAIIADGGIKFSGDIIKALAAGGHAVMLGSLLAGTEESPGATEIFQGRQYKVYRGMGSLGAMEKGSNDRYFQEDKAPKKFVPEGIEGRTAYKGALQDTIYQLMGGVRAGMGYTGSHDLRELREEAQFTRMGPAGLAESHPHNIQITKESPNYSF
notes: also called IMPDHsa; class II IMPDH
B3: Burkholderia thailandensis inosine-5'-monophosphate dehydrogenase (enzyme, Burkholderia thailandensis strain E264, UniProt Q2SWW9 1-486, looked up)
chain: MRLIQKALTFDDVLLVPAFSDVLPRDTSLKTQLTRHISLNMPLVSAAMDTVTEGRLAIAMAQQGGVGIVHKNLTPVEQAREVAKVKRFESGVVRDPITVPPSMKVRDVIALSRQHGISGFPVLEGPKLVGIVTNRDLRFETRLDEPVKSIMTPRERLVTVAEGTPLAEAKALMHSHRLERVLVVNDAFELRGLMTVKDITKQTEHPEACKDEHGKLRVGAAVGVGADNEERVELLVQAGVDVIVVDTAHGHSKGVLERVRWVKQNFPKVEVIGGNIATAAAAKALVEYGADAVKVGIGPGSICTTRIVAGVGVPQISAIANVSDALRGTGVPCIADGGIRFSGDVSKALAAGANAVMMGSMFAGTEEAPGDVFLYQGRQYKSYRGMGSVGAMKDGAADRYFQDNSANIDKLVPEGIEGRVAYKGSVNAIIFQLIGGVRASMGYCGCKTIAEMHEKAEFVEITAAGMRESHVHDVQITKEAPNYHVD
notes: also called IMPDHbt; class II IMPDH
B4: Legionella pneumophila subsp. pneumophila inosine-5'-monophosphate dehydrogenase (enzyme)
chain: MPLSIVQQSLTFDDVLLVPAHSTILPKDVSLKTKLTRAIHLNMPLISAAMDTVTEARLAIALAQEGGLGIIHKNMSIADQAEEVRRVKKFESGMVKDPISVTPDLTVKELLAVMTKYNFSGVPVVDGKHLVGIVTSRDIRFETNMNLTVAQVMTPKGRLVTVKEGASREEVRSLLHKHRIEKLLVVNENFELRGLITVKDIQKAKDNPYACKDSFEQLRVGAAVGVGEGTDERVAALVESGVDVIVVDTAHGHSQGVLNRVKWIKKNYPDVQVIGGNIATAAAARDLYEAGADAVKVGIGPGSICTTRIVTGVGIPQISAIANVAQELKGIIPVIADGGIRFSGDVCKALAAGADTVMLGSMFAGTEESPGEIELYQGRTYKNYRGMGSIGAMSLAQGSSDRYFQDASLGTEKLVPEGIEGRVPYKGPVQTIIHQLLGGLRSCMGYTGCATIEELHSKTEFVQVTNAGMRESHVHDVSITKQAPNYQVDN
notes: also called IMPDHlpp; class I IMPDH
B5: Pseudomonas aeruginosa inosine-5'-monophosphate dehydrogenase (enzyme, UniProt Q9HXM5 1-489, looked up)
chain: MLRISQEALTFDDVLLIPGYSEVLPKDVSLKTRLTRGIELNIPLVSAAMDTVTEARLAIAMAQEGGIGIIHKNMGIEQQAAEVRKVKKHETAIVRDPVTVTPSTKIIELLQMAREYGFSGFPVVEQGELVGIVTGRDLRVKPNAGDTVAAIMTPKDKLVTAREGTPLEEMKAKLYENRIEKMLVVDENFYLRGLVTFRDIEKAKTYPLASKDEQGRLRVGAAVGTGADTGERVAALVAAGVDVVVVDTAHGHSKGVIERVRWVKQTFPDVQVIGGNIATAEAAKALAEAGADAVKVGIGPGSICTTRIVAGVGVPQISAIANVAAALEGTGVPLIADGGIRFSGDLAKAMVAGAYCVMMGSMFAGTEEAPGEIELFQGRSYKSYRGMGSLGAMSGSQGSSDRYFQDASAGAEKLVPEGIEGRVPYKGALSAIVHQLMGGLRAAMGYTGSADIQQMRTQPQFVRITGAGMAESHVHDVQITKEAPNYRVG
notes: also called IMPDHpa; class I IMPDH

Molecular target: the molecule itself
Assay: AUC

Protein	stoichiometry N
B1	8
B2	4
B3	4
B4	8

Molecular target: the molecule itself
Assay: AUC
Remark: another data set of the same source

Protein	stoichiometry N
B5	8
B2	8
B3	8

Molecular target: the molecule itself
Assay: SEC

Protein	stoichiometry N
B1	~8
B5	~8
B2	~4
B3	~4
B4	~8
